Measured values: patent US20180326085A1 (Merck KGaA, published 2018)

B1: oa 225-H (antibody, V domains shown)
VH: EVQLVQSGAEVKKPGASVKVSCKASGFSLTNYGVHWMRQAPGQGLEWIGVIWSGGNTDYNTPFTSRVTITSDKSTSTAYMELSSLRSEDTAVYYCARALDYYDYEFAYWGQGTLVTVSS
VL: DIQMTQSPSSLSASVGDRVTITCRASQSIGTNIHWYQQKPGKAPKLLIKYASESISGVPSRFSGSGYGTDFTLTISSLQPEDVATYYCQQNNEWPNTFGQGTKVEIK
notes: one-armed (monovalent) anti-EGFR SEED molecule
B2: CS06x225-H (bispecific c-MET x EGFR SEEDbody) (bispecific antibody, V domains shown)
VH 1: QVQLQQSGAEVKKPGSSAKVSCKASGGTFSSNAISWVRQAPGQGLEWMGGIIPIFGTAIYAQKFQGRVTITADESTSTAYMELSSLRSEDTAVYYCARDQRGYYYYYYYGMDVWGQGTTVTVSS
VL 1: QLVLTQSPSVSVAPGKTARITCGGNNIRNVGVHWYQKKPGQAPILVVYDDDDRPSGVPERFSGSNSGNTATLTISRVEAGDEADYYCQVWDSATDQRVFGGGTKLTVLGQPKAG
VH 2: EVQLVQSGAEVKKPGASVKVSCKASGFSLTNYGVHWMRQAPGQGLEWIGVIWSGGNTDYNTPFTSRVTITSDKSTSTAYMELSSLRSEDTAVYYCARALDYYDYEFAYWGQGTLVTVSS
VL 2: DIQMTQSPSSLSASVGDRVTITCRASQSIGTNIHWYQQKPGKAPKLLIKYASESISGVPSRFSGSGYGTDFTLTISSLQPEDVATYYCQQNNEWPNTFGQGTKVEIK
notes: The rest is a SEEDbody: IgG1 hinge-CH2-SEED CH3 (AG/GA)
B3: oa 425 (antibody, V domains shown)
VH: QVQLVQSGAEVKKPGASVKVSCKASGYTFTSHWMHWVRQAPGQGLEWIGEFNPSNGRTNYNEKFKSKATMTVDTSTNTAYMELSSLRSEDTAVYYCASRDYDYDGRYFDYWGQGTLVTVSS
VL: DIQMTQSPSSLSASVGDRVTITCSASSSVTYMYWYQQKPGKAPKLLIYDTSNLASGVPSRFSGSGSGTDYTFTISSLQPEDIATYYCQQWSSHIFTFGQGTKVEIKR
notes: as for B1
B4: oa B10 (antibody, V domains shown)
VH: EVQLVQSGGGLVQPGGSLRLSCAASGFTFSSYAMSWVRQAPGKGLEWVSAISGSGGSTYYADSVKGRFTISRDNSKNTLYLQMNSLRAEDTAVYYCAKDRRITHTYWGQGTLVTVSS
VL: QSVLTQPPSTSGTPGQRVTISCFGSSSNVGVNTVNWYRQLPGTAPKLLIYDNNLRPSGVPERFSGSKSGTSASLAITGLQAEDEGDYYCQSYDSSLSDVVFGGGTKLTVLG
notes: one-armed (monovalent) anti-c-MET SEED molecule; also called one-armed B10
B5: oa CS06 (antibody, V domains shown)
VH: QVQLQQSGAEVKKPGSSAKVSCKASGGTFSSNAISWVRQAPGQGLEWMGGIIPIFGTAIYAQKFQGRVTITADESTSTAYMELSSLRSEDTAVYYCARDQRGYYYYYYYGMDVWGQGTTVTVSS
VL: QLVLTQSPSVSVAPGKTARITCGGNNIRNVGVHWYQKKPGQAPILVVYDDDDRPSGVPERFSGSNSGNTATLTISRVEAGDEADYYCQVWDSATDQRVFGGGTKLTVLG
notes: one-armed (monovalent) anti-c-MET SEED molecule; also called one-armed CS06
B6: oa B10v5 (antibody, V domains shown)
VH: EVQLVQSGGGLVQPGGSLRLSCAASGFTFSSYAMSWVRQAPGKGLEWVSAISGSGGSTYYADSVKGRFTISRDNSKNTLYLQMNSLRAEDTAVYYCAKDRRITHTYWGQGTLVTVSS
VL: EPVLTQPPSVSVAPGETATIPCGGDSLGSKIVHWYQQRPGQAPLLVVYDDAARPSGIPERFSGSKSGTTATLTISSVEAGDEADYFCQVYDYHSDVEVFGGGTKLTVLG
notes: one-armed (monovalent) anti-c-MET SEED molecule; also called one-armed B10v5
B7: B10v5x225-H (bispecific c-MET x EGFR SEEDbody) (bispecific antibody, V domains shown)
VH 1: not shown
VL 1: EPVLTQPPSVSVAPGETATIPCGGDSLGSKIVHWYQQRPGQAPLLVVYDDAARPSGIPERFSGSKSGTTATLTISSVEAGDEADYFCQVYDYHSDVEVFGGGTKLTVLGQPKAA
VH 2: EVQLVQSGAEVKKPGASVKVSCKASGFSLTNYGVHWMRQAPGQGLEWIGVIWSGGNTDYNTPFTSRVTITSDKSTSTAYMELSSLRSEDTAVYYCARALDYYDYEFAYWGQGTLVTVSS
VL 2: DIQMTQSPSSLSASVGDRVTITCRASQSIGTNIHWYQQKPGKAPKLLIKYASESISGVPSRFSGSGYGTDFTLTISSLQPEDVATYYCQQNNEWPNTFGQGTKVEIK
notes: hu225-H); SEEDbody format (IgG1 hinge-CH2-SEED CH3)

Tests used:
EGFR on cells [1] = target: T1, EGFR on cells (human, UniProt P00533); experiment: flow cytometry, EBC-1 cells (c-MET+++ EGFR++)
T1 construct: endogenous receptor on the cell surface; for A549 cells m5 is used; also called on NCI-H441, EBC-1, A431, MKN-45, HepG2 or T47D cells (cell line under assay)

EGFR on cells [2] = target: T1, EGFR on cells; experiment: flow cytometry, MKN-45 cells (c-MET+++ EGFR++)
[3] = target: T2, EGFR (soluble extracellular domain) (human, UniProt P00533); experiment: BLI (Octet), antibody on anti-human Fc biosensors, soluble EGFR ECD as analyte
T2 construct: soluble extracellular domain; also called Human EGFR extracellular domain, R&D Systems 1095-ER

EGFR on cells [4] = target: T1, EGFR on cells; experiment: flow cytometry, A431 cells (c-MET+ EGFR+++)
[5] = target: T3, EGFR (epidermal growth factor receptor) on A549 cells (human, UniProt P00533 25-1210); experiment: flow cytometry, A549 cells (c-MET+ EGFR++)
T3 construct: whole, on cells; Endogenous receptor of A549 cells; phosphorylation read out in cell lysates

EGFR on cells [6] = target: T1, EGFR on cells; experiment: flow cytometry on NCI-H441 cells (express c-MET and EGFR), FITC anti-human Fc, n=3
EGFR on cells [7] = target: T1, EGFR on cells; experiment: flow cytometry, HepG2 cells (c-MET+ EGFR+)
c-MET on cells [8] = target: T4, c-MET on cells (human, UniProt P08581); experiment: flow cytometry, SK-MEL2 cells (c-MET+ EGFR-)
T4 construct: endogenous receptor on the cell surface; for A549 cells m4 is used; also called HGFR; on NCI-H441, EBC-1, A431, MKN-45, SK-MEL2 or HepG2 cells (cell line under assay)

[9] = target: T5, c-MET and EGFR co-expressed on cells (human, UniProt P08581;P00533); experiment: flow cytometry, EBC-1 cells (c-MET+++ EGFR++)
T5 construct: endogenous receptor on the cell surface; not a complex: two separate receptors on the same cell; used as target only for bispecific c-MET x EGFR molecules, whose cell staining cannot be split between the two arms; also called cells that carry both receptors: NCI-H441, EBC-1, A431, MKN-45, A549, HepG2 (cell line under assay)

[10] = target: T5, c-MET and EGFR co-expressed on cells; experiment: flow cytometry, MKN-45 cells (c-MET+++ EGFR++)
[11] = target: T5, c-MET and EGFR co-expressed on cells; experiment: flow cytometry, A431 cells (c-MET+ EGFR+++)
[12] = target: T5, c-MET and EGFR co-expressed on cells; experiment: flow cytometry, A549 cells (c-MET+ EGFR++)
[13] = target: T5, c-MET and EGFR co-expressed on cells; experiment: flow cytometry on NCI-H441 cells (express c-MET and EGFR), FITC anti-human Fc, n=3
[14] = target: T6, biotinylated recombinant human c-MET ECD (HGFR extracellular domain) (human, UniProt P08581 25-932, biotinylated (sites not given)); experiment: BLI (Octet), antibody on anti-human Fc biosensors, soluble c-MET ECD as analyte
T6 construct: extracellular domain; also called human c-MET ECD-His

[15] = target: T5, c-MET and EGFR co-expressed on cells; experiment: flow cytometry, HepG2 cells (c-MET+ EGFR+)
c-MET on cells [16] = target: T4, c-MET on cells; experiment: flow cytometry, EBC-1 cells (c-MET+++ EGFR++)
c-MET on cells [17] = target: T4, c-MET on cells; experiment: flow cytometry, MKN-45 cells (c-MET+++ EGFR++)
c-MET on cells [18] = target: T4, c-MET on cells; experiment: flow cytometry, A431 cells (c-MET+ EGFR+++)
[19] = target: T7, c-MET (hepatocyte growth factor receptor) on A549 cells (human, UniProt P08581 25-1390); experiment: flow cytometry, A549 cells (c-MET+ EGFR++)
T7 construct: whole, on cells; Endogenous receptor of A549 cells; phosphorylation read out in cell lysates; also called HGFR

c-MET on cells [20] = target: T4, c-MET on cells; experiment: flow cytometry, HepG2 cells (c-MET+ EGFR+)
[21] = target: T6, biotinylated recombinant human c-MET …; experiment: HGF competition ELISA: HGF on the plate, biotinylated c-MET ECD pre-incubated with the antibody; blocked ligand HGF
c-MET on cells [22] = target: T4, c-MET on cells; experiment: flow cytometry on NCI-H441 cells (express c-MET and EGFR), FITC anti-human Fc, n=3

Binder	Kd [3] [nM]	koff [3] [s⁻¹]	kon [3] [M⁻¹ s⁻¹]	MFI at 100 nM (c-MET on cells [8])	Kd [14] [nM]	koff [14] [s⁻¹]	kon [14] [M⁻¹ s⁻¹]	MFI at 100 nM (c-MET on cells [16])	MFI at 100 nM (c-MET on cells [17])	MFI at 100 nM (c-MET on cells [18])	MFI at 100 nM [19]	MFI at 100 nM (c-MET on cells [20])	other results
B1	0.14	0.00049	3.6e+06	20									MFI at 100 nM (EGFR on cells [1]): 287; MFI at 100 nM (EGFR on cells [2]): 199; MFI at 100 nM (EGFR on cells [4]): 2230; MFI at 100 nM [5]: 184; EC50 (read off the curve) (EGFR on cells [6]): ~400 pM; MFI at 100 nM (EGFR on cells [7]): 53; binding result (c-MET on cells [8]): no binding (tested: 100 nM)
B2	0.12	0.00039	3.3e+06	164	0.12	0.00039	3.3e+06						MFI at 100 nM [9]: 1560; MFI at 100 nM [10]: 1550; MFI at 100 nM [11]: 1860; MFI at 100 nM [12]: 292; EC50 (read off the curve) [13]: ~300 pM; MFI at 100 nM [15]: 198
B3	22	0.012	530000	17									MFI at 100 nM (EGFR on cells [1]): 212; MFI at 100 nM (EGFR on cells [2]): 184; MFI at 100 nM (EGFR on cells [4]): 1150; MFI at 100 nM [5]: 170; MFI at 100 nM (EGFR on cells [7]): 50; binding result (c-MET on cells [8]): no binding (tested: 100 nM)
B4				39	12	0.0012	100000	952	916	103	130	69	
B5				213	0.19	0.00021	1.1e+06	2630	1490	37	147	296	IC50 (read off the curve) [21]: ~8 nM; EC50 (read off the curve) (c-MET on cells [22]): ~300 pM
B6				272	0.38	0.00016	400000	2310	1500	49	91	399	IC50 (read off the curve) [21]: ~6 nM; EC50 (read off the curve) (c-MET on cells [22]): ~1000 pM
B7	0.15	0.00053	3.5e+06	222	0.36	0.00015	400000						MFI at 100 nM [9]: 2060; MFI at 100 nM [10]: 1330; MFI at 100 nM [11]: 1760; MFI at 100 nM [12]: 335; EC50 (read off the curve) [13]: ~500 pM; MFI at 100 nM [15]: 352
